From patent US20080171343A1 (UNIVERSITY OF MANCHESTER, published 2008) come the findings set out here.

Positions count from the first letter of the chain named. In names and notes the source's numbering stands.

One may read the EC50 (read off the curve) as the concentration giving half of the maximal effect. Higher therefore signals weaker potency.

One experiment deals with T1, C-reactive protein (UniProt P02741 19-224).
T1 construct: Bought; Coated on microtitre plates at 10 ug/ml; also called CRP; recombinant CRP
T1 sequence (looked up): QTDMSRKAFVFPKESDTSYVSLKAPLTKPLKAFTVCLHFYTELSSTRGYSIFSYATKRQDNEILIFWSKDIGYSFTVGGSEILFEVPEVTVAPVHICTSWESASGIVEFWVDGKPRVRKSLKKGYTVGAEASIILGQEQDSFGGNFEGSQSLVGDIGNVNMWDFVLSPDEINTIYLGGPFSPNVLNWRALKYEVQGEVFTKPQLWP
In words: plate assay: CRP coated on microtitre wells (10 ug/ml), unlabelled protein in fluid phase, detection with goat polyclonal anti-FH antibody and HRP secondary, A490, background subtracted. As for the experimental part:
CRP or FMOD was coated overnight at 4° C. onto microtiter plates (Maxisorp, Nunc) at a concentration of 10 μg/ml in 75 mM sodium carbonate buffer, pH 9.6. Wells treated only with coating buffer or 1% (w/v) BSA (Sigma) in coating buffer (for the assays involving FMOD) were used as negative controls. Between each step the wells were washed extensively with 50 mM Tris-HCl, 150 mM NaCl, 0.1% (v/v) Tween 20, pH 7.5. All wells were blocked with 1% (w/v) BSA (Sigma) in phosphate buffered saline (Invitrogen) for 1 hour at 37° C. FHCCP6-8(H384) and FHCCP6-8(Y384) were added at varrying concentrations in the binding buffer (50 mM HEPES, 100 mM NaCl, 2 mM CaCl₂, pH 7.4); full length FH served as a positive control. In the experiments with FMOD, 50 μg/ml BSA was included in the binding buffer. The amount of bound protein was assessed using a goat polyclonal anti-FH antibody (Quidel, Cat # A312) followed by HRP-labeled anti-goat secondary antibodies (Dako) and the OPD development kit (Dako). Detection of biotinylated protein was performed using a StreptABComplex/HRP-kit from Dako, and in both cases the absorbance at 490 nm was measured to quantify protein binding.

For the next experiment, the target named is T2, deglycosylated FMOD (bovine, UniProt P13605 19-376, N-linked oligosaccharides (including keratan sulphate) removed with N-glycosidase F).
T2 construct: The same polypeptide as FMOD, without its N-linked glycans; also called N-glycosidase F-treated FMOD
T2 sequence (looked up): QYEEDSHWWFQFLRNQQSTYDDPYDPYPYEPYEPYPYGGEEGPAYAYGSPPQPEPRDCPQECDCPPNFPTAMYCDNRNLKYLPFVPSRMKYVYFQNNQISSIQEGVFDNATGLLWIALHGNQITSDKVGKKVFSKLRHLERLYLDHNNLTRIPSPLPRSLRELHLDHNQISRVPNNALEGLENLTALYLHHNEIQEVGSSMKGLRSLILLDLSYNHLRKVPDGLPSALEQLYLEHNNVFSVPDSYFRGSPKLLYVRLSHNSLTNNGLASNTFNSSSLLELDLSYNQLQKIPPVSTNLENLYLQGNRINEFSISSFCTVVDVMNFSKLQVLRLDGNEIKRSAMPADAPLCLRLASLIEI
As to the kind of experiment: microtitre plate assay, deglycosylated against untreated FMOD coated.

The next experiment addresses T3, fibromodulin (bovine, UniProt P13605 19-376, glycosylated (N-linked oligosaccharides including keratan sulphate), as isolated).
T3 construct: Isolated from tissue; coated on microtitre plates at 10 ug/ml; also called FMOD; untreated (glycosylated) FMOD
T3 sequence (looked up): T2 sequence (looked up)
In words: plate assay: FMOD coated on microtitre wells at 10 ug/ml, biotinylated protein in fluid phase, detection with streptavidin peroxidase kit, A490, background subtracted. On the procedure: FIG. 12: Binding of FHCCP6-8(H384), FHCCP6-8(Y384) and full length FH to FMOD. A. FMOD was coated in microtitre plate wells at a concentration of 10 μg/ml. BSA was used as the negative coating control. FHCCP6-8(H384) and FHCCP6-8(Y384) recombinant proteins or full length FH were incubated in fluid phase and bound protein was detected with a specific polyclonal antibody. B. FMOD was coated in microtitre plate wells as described for A. Biotinylated versions of FHCCP6-8(H384) and FHCCP6-8(Y384) were incubated in the wells and bound protein was detected with a streptavidin peroxidase kit. C. Untreated (glycosylated) and N-glycosidase F-treated FMOD were assessed for binding full length FH in a microtitre plate based binding assay. Bound protein was detected with a specific polyclonal antibody. […]
CRP or FMOD was coated overnight at 4° C. onto microtiter plates (Maxisorp, Nunc) at a concentration of 10 μg/ml in 75 mM sodium carbonate buffer, pH 9.6. […] The amount of bound protein was assessed using a goat polyclonal anti-FH antibody (Quidel, Cat # A312) followed by HRP-labeled anti-goat secondary antibodies (Dako) and the OPD development kit (Dako). Detection of biotinylated protein was performed using a StreptABComplex/HRP-kit from Dako, and in both cases the absorbance at 490 nm was measured to quantify protein binding.

B1: FHCCP6-8(Y384) (other)
chain: GTLKPCDYPDIKHGGLYHENMRRPYFPVAVGKYYSYYCDEHFETPSGSYWDHIHCTQDGWSPAVPCLRKCYFPYLENGYNQNYGRKFVQGKSIDVACHPGYALPKAQTTVTCMENGWSPTPRCIRVKTCSKSSIDIENGFISESQYTYALKEKAKYQCKLGYVTADGETSGSITCGKDGWSAQPTCI
modifications: in some assays biotinylated with EZlink N-hydroxysuccinimide-LC Biotin (sites not given)
notes: Made by site-directed mutagenesis (H384Y) of FHCCP6-8(H384); also called FHCCP68 (Y384 allotype); Y384 variant
For the molecule B1, the “EC50 (read off the curve)” value with C-reactive protein is ~1 µg/mL. For the same molecule, the binding result with deglycosylated FMOD and with fibromodulin was “binds” throughout.

B2: FHCCP6-8(H384) (other)
chain: B1 chain with Y83H
modifications: in some assays biotinylated with EZlink N-hydroxysuccinimide-LC Biotin (sites not given)
notes: Used unlabelled (detected with a goat polyclonal anti-FH antibody) or biotinylated; also called FHCCP68 (H384 allotype); H384 variant
Regarding B2, the binding result with deglycosylated FMOD and with fibromodulin was “binds” each time.
